Non-standard residues stand in square brackets, D forms with d. No end group written: not given here. *: point of attachment. FITC = O=C1OC2(c3ccc(O)cc3Oc3cc(O)ccc32)c2ccc(NC(=S)*)cc21; pS = N[C@@H](COP(=O)(O)O)C(=O)O; Ahx = NCCCCCC(=O)O

The target of experiment [1] is T1, 14-3-3ɛ (full length) (human, UniProt P62258 1-255).
T1 construct: 14-3-3 protein epsilon, human, full length; Expressed from a pPRoeX-Htb vector; also called 14-3-3 isoform ɛ; source: E. coli NiCo21(DE3), purified (nickel column, TEV cleavage, second nickel column, SEC)
T1 sequence (looked up): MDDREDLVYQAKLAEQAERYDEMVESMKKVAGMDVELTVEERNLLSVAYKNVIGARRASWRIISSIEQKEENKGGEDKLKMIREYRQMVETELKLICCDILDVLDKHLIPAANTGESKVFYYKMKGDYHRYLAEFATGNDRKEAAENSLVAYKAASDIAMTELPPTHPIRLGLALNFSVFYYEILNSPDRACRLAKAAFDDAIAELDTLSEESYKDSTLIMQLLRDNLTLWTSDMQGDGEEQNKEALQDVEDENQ
As to the kind of experiment: fluorescence polarisation; 14-3-3 isoforms (full length) serially diluted twofold in the presence of 10 nM FITC-labelled peptide; 50 mM Tris pH 7.5, 150 mM NaCl, 5 mM MgCl2, 0.05% Tween-20 (no reducing agent listed); one-site specific binding model. The following applies: both partners purified. Background: In fluorescence polarisation assays a small probe gives low polarisation when free and higher when bound to something large.

The target of experiment [2] is T2, 14-3-3ζ (full length) (human, UniProt P63104 1-245).
T2 construct: 14-3-3 protein zeta/delta, human, full length; Expressed from a pPRoeX-Htb vector; also called 14-3-3 isoform ζ; source: E. coli NiCo21(DE3), purified (nickel column, TEV cleavage, second nickel column, SEC)
T2 sequence (looked up): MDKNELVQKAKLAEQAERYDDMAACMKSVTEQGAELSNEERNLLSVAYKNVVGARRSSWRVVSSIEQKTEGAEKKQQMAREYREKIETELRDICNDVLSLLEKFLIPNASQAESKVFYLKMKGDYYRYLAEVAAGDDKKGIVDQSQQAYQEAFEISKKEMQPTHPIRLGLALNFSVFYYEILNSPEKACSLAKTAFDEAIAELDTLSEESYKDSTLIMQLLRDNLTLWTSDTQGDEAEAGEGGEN
The description is as above. As to conditions: both partners purified.

Experiment [3] addresses T3, 14-3-3ζ (full length) (human, UniProt P63104 1-245).
T3 chain: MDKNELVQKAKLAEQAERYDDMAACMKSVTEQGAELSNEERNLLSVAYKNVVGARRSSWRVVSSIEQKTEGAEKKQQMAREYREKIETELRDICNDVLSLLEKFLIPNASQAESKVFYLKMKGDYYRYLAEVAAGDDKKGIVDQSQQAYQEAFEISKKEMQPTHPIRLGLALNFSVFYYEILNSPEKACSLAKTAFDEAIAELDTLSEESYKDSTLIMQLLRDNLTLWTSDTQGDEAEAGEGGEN
As to the kind of experiment: FP.

For another experiment, the target named is T4, 14-3-3τ (full length) (human, UniProt P27348 1-245).
T4 chain: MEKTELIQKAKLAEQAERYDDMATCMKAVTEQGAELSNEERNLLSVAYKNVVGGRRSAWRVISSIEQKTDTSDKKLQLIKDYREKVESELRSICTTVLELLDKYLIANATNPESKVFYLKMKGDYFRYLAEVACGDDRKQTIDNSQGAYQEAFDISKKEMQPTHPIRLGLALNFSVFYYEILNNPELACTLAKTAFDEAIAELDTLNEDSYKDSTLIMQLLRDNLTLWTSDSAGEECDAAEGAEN
As to the kind of experiment: FP.

A further experiment deals with T5, 14-3-3β (full length) (human, UniProt P31946 1-246).
T5 chain: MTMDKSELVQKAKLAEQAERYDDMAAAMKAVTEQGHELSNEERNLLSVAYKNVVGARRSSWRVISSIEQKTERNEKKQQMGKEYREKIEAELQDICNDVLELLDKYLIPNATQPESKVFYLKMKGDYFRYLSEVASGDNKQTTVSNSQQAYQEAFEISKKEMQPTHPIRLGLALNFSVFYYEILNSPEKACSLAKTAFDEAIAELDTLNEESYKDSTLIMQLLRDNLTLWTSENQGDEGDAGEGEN
In words: FP.

Experiment [4] has as its target T6, 14-3-3ɛ (full length) (human, UniProt P62258 1-255).
T6 chain: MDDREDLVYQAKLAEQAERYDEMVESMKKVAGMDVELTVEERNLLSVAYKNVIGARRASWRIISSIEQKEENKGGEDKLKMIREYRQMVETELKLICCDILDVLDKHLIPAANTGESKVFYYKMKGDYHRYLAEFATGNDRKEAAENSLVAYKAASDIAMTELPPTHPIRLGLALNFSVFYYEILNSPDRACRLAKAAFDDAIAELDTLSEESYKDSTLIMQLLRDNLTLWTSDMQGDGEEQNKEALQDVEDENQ
In words: FP.

B1: SHN3pS542 peptide, N-terminally FITC-Ahx-labelled (peptide)
peptide: {FITC-Ahx}-LLRSH[pS]MPSAAC
modifications: also: phosphoserine at 542, position not mapped
notes: Schnurri-3 (SHN3, transcription factor HIVEP3), human, 12-mer around phosphorylated Ser542; also called SHN3pS542-FITC; the FITC-labelled form; source: synthetic peptide, bought: GenScript (purity >95%)
On to B1, for which the binding result in the experiment with 14-3-3ɛ (full length) [1] and in the experiment with 14-3-3ζ (full length) [2] was “binds” in each case. Further, the dissociation constant Kd in the experiment with 14-3-3ζ (full length) [3] amounted to 2140 nM; with 14-3-3τ (full length), 1910 nM; in the experiment with 14-3-3β (full length), 1380 nM; in the experiment with 14-3-3ɛ (full length) [4] it was 2510 nM.

A word on the Kd: it is the equilibrium constant for the complex coming apart. Higher therefore signals a looser complex.

Source of the values: article PMC8329713, “The identification and structural analysis of potential 14-3-3 interaction sites on the bone regulator protein Schnurri-3” (Acta Crystallographica. Section F, Structural Biology …, 2021).
